The target of data set [1] is T1, MAS tripeptide (Met-Ala-Ser).
T1 chain: MAS

Data set [2] deals with T2, GGG tripeptide.
T2 chain: GGG

Data set [3] has as its target T3, IGG tripeptide.
T3 chain: IGG

The target in data set [4] is T4, MEG tripeptide.
T4 chain: MEG

Data set [5] deals with T5, MGG tripeptide.
T5 chain: MGG

B1: recombinant human MetAP-2 expressed in Sf9 insect cells (protein)
chain: AGVEEVAASGSHLNGDLDPDDREEGAASTAEEAAKKKRRKKKKSKGPSAAGEQEPDKESGASVDEVARQLERSALEDKERDEDDEDGDGDGDGATGKKKKKKKKKRGPKVQTDPPSVPICDLYPNGVFPKGQECEYPPTQDGRTAAWRTTSEEKKALDQASEEIWNDFREAAEAHRQVRKYVMSWIKPGMTMIEICEKLEDCSRKLIKENGLNAGLAFPTGCSLNNCAAHYTPNAGDTTVLQYDDICKIDFGTHISGRIIDCAFTVTFNPKYDTLLKAVKDATNTGIKCAGIDVRLCDVGEAIQEVMESYEVEIDGKTYQVKPIRNLNGHSIGQYRIHAGKTVPIVKGGEATRMEEGEVYAIETFGSTGKGVVHDDMECSHYMKNFDVGHVPIRLPRTKHLLNVINENFGTLAFCRRWLDRLGESKYLMALKNLCDLGIVDPYPPLCDIKGSYTAQFEHTILLRPTCKEVVSRGDDY
In general, Km refers to the substrate concentration at which the rate is half of its maximum. One may read the kcat as the maximal rate divided by the concentration of active sites. Take B1: in data set [1], the Michaelis constant (Km) was found to be 300 µM and the kcat amounted to 2.3 s⁻¹.

B2: recombinant human MetAP-3 purified from E. coli after thrombin cleavage of the NusA-6xHis tag (protein)
chain: SSPLNHIYLHKQSSSQQRRNFFFRRQRDISHSIVLPAAVSSAHPVPKHIKKPDYVTTGIVPDWGDSIEVKNEDQIQGLHQACQLARHVLLLAGKSLKVDMTTEEIDALVHREIISHNAYPSPLGYGGFPKSVCTSVNNVLCHGIPDSRPLQDGDIINIDVTVYYNGYHGDTSETFLVGNVDECGKKLVEVARRCRDEAIAACRAGAPFSVIGNTISHITHQNGFQVCPHFVGHGIGSYFHGHPEIWHHANDSDLPMEEGMAFTIEPIITEGSPEFKVLEDAWTVVSLDNQRSAQFEHTVLITSRGAQILTKLPHEA
On to B2, for which the Cleaved entry is listed as “No” in data set [2]; “No” in data set [3]; “Yes” in data set [1]; “No” in data set [4]; “Yes” in data set [5]. The Vmax (Abs × 1000/min) (Abs × 1000/min) in data set [2] is 0.7; in data set [3], 3.1; in data set [1], 70; in data set [4], 1.1; in data set [5] it was 134. For the same protein, the Km in data set [1] amounted to 600 µM. For the same protein, the kcat in data set [1] is 0.06 s⁻¹.

The values above are taken from patent publication US20030203406.
